Our source for the activity (1-depletion score) values is patent US20240425885.

Holding throughout (assay): cleavage_in_vitro
Data set [1] concerns T1, OMNI-118 (metagenomic, unknown).
T1 sequence: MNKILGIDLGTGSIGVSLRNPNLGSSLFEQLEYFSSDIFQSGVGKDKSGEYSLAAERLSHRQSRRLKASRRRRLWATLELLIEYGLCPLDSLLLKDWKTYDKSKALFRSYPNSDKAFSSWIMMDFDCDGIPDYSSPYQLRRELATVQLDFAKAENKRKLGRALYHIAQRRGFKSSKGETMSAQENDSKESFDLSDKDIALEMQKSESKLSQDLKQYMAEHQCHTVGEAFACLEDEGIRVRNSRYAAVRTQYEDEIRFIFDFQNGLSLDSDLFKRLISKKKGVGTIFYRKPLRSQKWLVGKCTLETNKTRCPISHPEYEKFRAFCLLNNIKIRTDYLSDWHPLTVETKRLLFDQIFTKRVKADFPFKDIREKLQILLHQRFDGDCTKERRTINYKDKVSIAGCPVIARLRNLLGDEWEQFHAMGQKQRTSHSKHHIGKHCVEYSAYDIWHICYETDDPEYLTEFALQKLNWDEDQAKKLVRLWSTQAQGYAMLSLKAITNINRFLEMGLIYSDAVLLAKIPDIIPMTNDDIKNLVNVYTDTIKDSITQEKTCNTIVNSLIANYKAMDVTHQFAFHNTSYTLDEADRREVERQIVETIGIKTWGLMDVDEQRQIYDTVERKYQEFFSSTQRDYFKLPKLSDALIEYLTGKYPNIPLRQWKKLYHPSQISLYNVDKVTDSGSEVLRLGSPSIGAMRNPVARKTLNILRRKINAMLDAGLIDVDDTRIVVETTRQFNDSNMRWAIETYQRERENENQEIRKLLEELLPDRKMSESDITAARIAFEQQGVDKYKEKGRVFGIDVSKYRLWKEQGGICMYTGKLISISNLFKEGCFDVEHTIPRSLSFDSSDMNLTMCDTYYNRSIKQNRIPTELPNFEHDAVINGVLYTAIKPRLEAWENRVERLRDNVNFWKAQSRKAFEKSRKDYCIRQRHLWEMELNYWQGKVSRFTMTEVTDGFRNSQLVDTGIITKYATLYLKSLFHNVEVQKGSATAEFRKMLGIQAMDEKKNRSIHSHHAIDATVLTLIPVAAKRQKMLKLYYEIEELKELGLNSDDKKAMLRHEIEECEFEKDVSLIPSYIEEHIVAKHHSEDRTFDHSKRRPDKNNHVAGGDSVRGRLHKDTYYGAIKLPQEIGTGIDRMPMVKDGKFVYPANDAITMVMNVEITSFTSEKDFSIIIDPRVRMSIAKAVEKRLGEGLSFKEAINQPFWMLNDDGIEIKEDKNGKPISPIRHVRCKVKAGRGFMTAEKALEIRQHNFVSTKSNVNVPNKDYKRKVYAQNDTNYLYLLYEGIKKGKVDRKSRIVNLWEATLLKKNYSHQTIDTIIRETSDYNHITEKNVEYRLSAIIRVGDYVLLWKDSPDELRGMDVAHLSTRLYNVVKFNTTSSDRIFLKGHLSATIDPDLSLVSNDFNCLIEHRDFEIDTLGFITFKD
To be noted: TXTL; PAM NNRTTHNN

In data set [2] the test system is T2, OMNI-107 (metagenomic, unknown).
T2 sequence: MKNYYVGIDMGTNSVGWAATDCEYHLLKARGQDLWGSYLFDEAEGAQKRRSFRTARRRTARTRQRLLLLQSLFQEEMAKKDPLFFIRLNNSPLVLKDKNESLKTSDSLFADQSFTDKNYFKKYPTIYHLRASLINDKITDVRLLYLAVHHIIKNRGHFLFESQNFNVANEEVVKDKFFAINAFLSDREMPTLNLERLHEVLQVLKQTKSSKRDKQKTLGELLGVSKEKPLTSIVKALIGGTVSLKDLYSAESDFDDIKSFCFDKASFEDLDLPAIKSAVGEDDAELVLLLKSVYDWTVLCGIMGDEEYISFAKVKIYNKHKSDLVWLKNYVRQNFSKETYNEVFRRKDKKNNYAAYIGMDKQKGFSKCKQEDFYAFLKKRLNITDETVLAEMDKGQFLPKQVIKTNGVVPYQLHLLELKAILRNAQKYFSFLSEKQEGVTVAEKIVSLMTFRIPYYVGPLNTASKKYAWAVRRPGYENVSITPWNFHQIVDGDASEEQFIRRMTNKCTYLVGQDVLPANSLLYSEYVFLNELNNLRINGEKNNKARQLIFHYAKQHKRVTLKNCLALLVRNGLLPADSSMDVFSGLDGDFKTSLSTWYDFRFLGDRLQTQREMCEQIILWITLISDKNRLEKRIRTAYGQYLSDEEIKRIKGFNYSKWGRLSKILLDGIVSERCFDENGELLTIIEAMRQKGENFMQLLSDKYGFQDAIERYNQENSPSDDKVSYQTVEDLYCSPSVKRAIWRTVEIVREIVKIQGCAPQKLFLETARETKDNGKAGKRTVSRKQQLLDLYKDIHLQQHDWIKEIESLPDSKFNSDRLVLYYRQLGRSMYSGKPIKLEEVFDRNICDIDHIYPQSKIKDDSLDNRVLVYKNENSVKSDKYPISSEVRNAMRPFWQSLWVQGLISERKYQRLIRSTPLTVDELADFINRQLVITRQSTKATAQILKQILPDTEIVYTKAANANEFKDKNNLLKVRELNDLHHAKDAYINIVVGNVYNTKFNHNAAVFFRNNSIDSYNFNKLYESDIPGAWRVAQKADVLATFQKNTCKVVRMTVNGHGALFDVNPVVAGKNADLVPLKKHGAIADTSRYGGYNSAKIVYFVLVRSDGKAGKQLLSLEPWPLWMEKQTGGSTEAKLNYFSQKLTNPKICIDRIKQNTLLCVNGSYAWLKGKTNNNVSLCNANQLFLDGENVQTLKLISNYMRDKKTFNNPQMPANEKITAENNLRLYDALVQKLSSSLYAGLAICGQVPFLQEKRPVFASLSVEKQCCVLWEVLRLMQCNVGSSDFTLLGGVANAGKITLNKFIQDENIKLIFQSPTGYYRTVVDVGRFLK
Conditions: TXTL; PAM NNNAANNN

Data set [3] deals with T3, OMNI-97 (metagenomic, unknown).
T3 sequence: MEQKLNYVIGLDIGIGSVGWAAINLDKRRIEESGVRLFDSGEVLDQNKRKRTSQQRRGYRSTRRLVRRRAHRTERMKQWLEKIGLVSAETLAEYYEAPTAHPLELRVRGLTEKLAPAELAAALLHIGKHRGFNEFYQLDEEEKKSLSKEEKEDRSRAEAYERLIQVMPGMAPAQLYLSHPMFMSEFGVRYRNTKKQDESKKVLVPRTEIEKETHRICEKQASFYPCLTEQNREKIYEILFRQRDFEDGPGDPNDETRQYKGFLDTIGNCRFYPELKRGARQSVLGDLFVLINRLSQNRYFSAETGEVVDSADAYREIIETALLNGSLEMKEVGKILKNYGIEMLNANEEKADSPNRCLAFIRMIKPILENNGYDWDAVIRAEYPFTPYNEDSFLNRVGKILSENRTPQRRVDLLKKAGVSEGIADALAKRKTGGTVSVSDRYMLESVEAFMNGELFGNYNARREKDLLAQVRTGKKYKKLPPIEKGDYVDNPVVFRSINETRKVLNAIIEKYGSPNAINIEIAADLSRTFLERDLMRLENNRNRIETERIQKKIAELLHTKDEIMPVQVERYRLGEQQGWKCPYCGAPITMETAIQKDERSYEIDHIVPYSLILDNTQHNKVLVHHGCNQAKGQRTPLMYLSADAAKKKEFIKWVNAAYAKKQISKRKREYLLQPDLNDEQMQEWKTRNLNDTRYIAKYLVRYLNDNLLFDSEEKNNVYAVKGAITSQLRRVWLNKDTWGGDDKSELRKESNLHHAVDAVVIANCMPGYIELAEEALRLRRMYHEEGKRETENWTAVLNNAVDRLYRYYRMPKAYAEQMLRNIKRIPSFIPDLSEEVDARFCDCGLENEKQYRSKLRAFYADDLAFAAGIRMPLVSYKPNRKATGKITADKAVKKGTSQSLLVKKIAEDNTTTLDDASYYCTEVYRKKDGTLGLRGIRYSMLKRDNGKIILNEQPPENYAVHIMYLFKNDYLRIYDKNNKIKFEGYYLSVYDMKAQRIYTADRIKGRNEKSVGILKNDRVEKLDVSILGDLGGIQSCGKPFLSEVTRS
To be noted: TXTL; PAM NNRCCANN

In turn, “GGAAGAGCAGAGCCUUGGUCUCGUUGUGAUUUGCUCUCAAAUGAAAAUUUGUGAGACUUAUCACAACAAGGCUAUAAGCCGAAGUAUUAACUCCGCGAUUAUGUCGUGGAGUUUUUUU / GGAAGAGCAGAGCCTTGGTCTCNNNNNNNN / NNNNNNNNGAGACCAAGGCTCTGCTCTTCC [T2 sgRNA 21 V2 ; T2 protospacer + 8N PAM library (pbPOS T2)]” came in with an activity (1-depletion score) in data set [1] of 0.78. Same read-out and setting: next, “GGAAGAGCAGAGCCUUGGUCUCGUUGUGAUUUGCUCUCAAAUGAAAAUUUGUGAGACUUAUCACAACAAGGCUAUAAGCCGAAGUAUUAACUCCGCGAUUUUGUCGUGGAGUUUUUUU / GGAAGAGCAGAGCCTTGGTCTCNNNNNNNN / NNNNNNNNGAGACCAAGGCTCTGCTCTTCC [T2 sgRNA 21 V1 ; T2 protospacer + 8N PAM library (pbPOS T2)]”: 0.66. As to “GGAAGAGCAGAGCCUUGGUCUCGUUUGAGUAUGGUGUUAGAAAUAACACCAUUAGUUCAAAUAAGAUUUUUUCAAAUCGCCGAUUUUUCGGUAGUACACGAUGUGUACAUUGGAUCUGUUGCAAGACAGGUCCUUUUUUU / GGAAGAGCAGAGCCTTGGTCTCNNNNNNNN / NNNNNNNNGAGACCAAGGCTCTGCTCTTCC [T2 sgRNA 16 V1 ; T2 protospacer + 8N PAM library (pbPOS T2)]”, the activity (1-depletion score) in data set [2] turned out to be 0.7.

Regarding “GGAAGAGCAGAGCCUUGGUCUCGUUUGAGUAUGGUGUUAGAAAUAACACCAUUAGUUCAAAUAAGAUUUUUUCAAAUCGCCGAUUUUUCGGUAGUACACGAUGUGUACAUUUUUU / GGAAGAGCAGAGCCTTGGTCTCNNNNNNNN / NNNNNNNNGAGACCAAGGCTCTGCTCTTCC [T2 sgRNA 16 V3 ; T2 protospacer + 8N PAM library (pbPOS T2)]”, the activity (1-depletion score) in data set [2] worked out at 0.83. In data set [3], “GGAAGAGCAGAGCCUUGGUCUCGUUUUGGGCCUCUGAUGGGAAACCAUCAGAGACCUGAGAUAAGGCUUUAUGCCGUAGGGUAUGGCGGUAACCCGGAGUAUUCCGAAUCCGCUUUUUCUUUGCCUGUAAAUACAGUAUAACAUAUUAUUUCGUCCUUUUUU / GGAAGAGCAGAGCCTTGGTCTCNNNNNNNN / NNNNNNNNGAGACCAAGGCTCTGCTCTTCC [T2 sgRNA 8 V1 ; T2 protospacer + 8N PAM library (pbPOS T2)]” registered an activity (1-depletion score) of 0.93.

Turning to “GGAAGAGCAGAGCCUUGGUCUCGUUUUGGGCCUCUGAUGGGAAACCAUCAGAGACCUGAGAUAAGGCUUUAUGCCGUAGGGUAUGGCGGUAACCCGGAGUAUUCCGAAUCCGCUUUUUUU / GGAAGAGCAGAGCCTTGGTCTCNNNNNNNN / NNNNNNNNGAGACCAAGGCTCTGCTCTTCC [T2 sgRNA 8 V3 ; T2 protospacer + 8N PAM library (pbPOS T2)]”, the activity (1-depletion score) in data set [3] was 0.97.
